# Laboratory results as given in patent US20040191240.
# Molecular target: recombinant full-length p21 (Santa Cruz)
# Sequence (chain, as listed by the source): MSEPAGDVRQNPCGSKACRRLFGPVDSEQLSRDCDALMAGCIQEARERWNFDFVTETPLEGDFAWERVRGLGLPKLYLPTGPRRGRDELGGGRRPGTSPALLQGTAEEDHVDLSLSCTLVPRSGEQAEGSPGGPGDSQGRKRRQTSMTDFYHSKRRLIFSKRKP
protein,measurement,value
"Rho kinase fragment (aa 1-543, Upstate Biotechnology) (protein) MSRPPPTGKMPGAPETAPGDGAGASRQRKLEALIRDPRSPINVESLLDGLNSLVLDLDFPALRKNKNIDNFLNRYEKIVKKIKGLQMKAEDYDVVKVIGRGAFGEVQLVRHKASQKVYAMKLLSKFEMIKRSDSAFFWEERDIMAFANSPWVVQLFYAFQDDRYLYMVMEYMPGGDLVNLMSNYDVPEKWAKFYTAEVVLALDAIHSMGLIHRDVKPDNMLLDKHGHLKLADFGTCMKMDETGMVHCDTAVGTPDYISPEVLKSQGGDGFYGRECDWWSVGVFLYEMLVGDTPFYADSLVGTYSKIMDHKNSLCFPEDAEISKHAKNLICAFLTDREVRLGRNGVEEIRQHPFFKNDQWHWDNIRETAAPVVPELSSDIDSSNFDDIEDDKGDVETFPIPKAFVGNQLPFIGFTYYRENLLLSDSPSCRENDSIQSRKNEESQEIQKKLYTLEEHLSNEMQAKEELEQKCKSVNTRLEKTAKELEEEITLRKSVESALRQLEREKALLQHKNAEYQRKADHEADKKRNLENDVNSLKDQLEDL","Rho-kinase activity toward S6 kinase substrate peptide ([gamma-32P]ATP, scintillation counting), in vitro",the estimated ICso value was 1.43 nM
